Assay results taken from patent US20200079862A1 (AGENUS, published 2020).

What was measured:
[1] = molecular target: T1, recombinant human TWEAK R-Fc (SinoBiological, 10431-H01H) (human, UniProt Q9NP84 28-80); assay: Luminex suspension array, protein coupled to microspheres, PE MFI
T1 construct: Bought construct; not shown: Fc part
Method: (§1) A number of TNFR family members were chemically coupled to Luminex® microspheres using standard NETS-ester chemistry. […] Briefly, 25 μl of each dilution was incubated in the dark (20° C., 650 rpm) with 1500 Luminex® microspheres in 5 μl assay buffer for 1 hour in 96 half-well filter plates (Millipore, MABVN1250). Luminex® microspheres were coupled with recombinant human OX40-His (SinoBiological, 10481-H08H), recombinant human OX40-Fc (R&D systems, 3388-OX), recombinant human LTBR-Fc (Acros Biosystems, LTR-H5251), recombinant human GITR-His (SinoBiological, 13643-H08H), recombinant human GITR-Fc (R&D, 689-GR), recombinant human DR6-Fc (SinoBiological, 10175-H02H), recombinant human DR3-Fc (R&D, 943-D3), recombinant human TWEAK R-Fc (SinoBiological, 10431-H01H), recombinant human CD137-His (SinoBiological, 10041-H08H), recombinant human BAFFR-Fc (R&D, 1162-BR) or anti-human IgG (F(ab)₂-specific, JIR, 105-006-097) via amine coupling with COOH bead surface. Standard curves were generated using duplicates of 25 μl of a human IgG1 standard (Sigma, I5154) with 1:3 dilution series (0.08-540 ng/ml). Detection was carried out using 60 μl of goat anti-human IgG F(ab)₂ labeled with R-PE (2.5 μg/ml; JIR 109-116-098, AbDSerotec Rapid RPE Antibody Conjugation Kit, LNK022RPE) and another hour of incubation time (20° C., 650 rpm). Plates were analyzed using a Luminex® 200 system (Millipore). A total of 100 beads were counted per well in a 48 μl sample volume. PE MFI values were used to determine specific or non-specific binding to the recombinant proteins mentioned above.

[2] = molecular target: T2, recombinant human CD137-His (SinoBiological, 10041-H08H) (human, UniProt Q07011 24-186); assay: as above
T2 construct: Bought construct; not shown: His tag
T2 sequence (Q07011 24-186 limits assumed): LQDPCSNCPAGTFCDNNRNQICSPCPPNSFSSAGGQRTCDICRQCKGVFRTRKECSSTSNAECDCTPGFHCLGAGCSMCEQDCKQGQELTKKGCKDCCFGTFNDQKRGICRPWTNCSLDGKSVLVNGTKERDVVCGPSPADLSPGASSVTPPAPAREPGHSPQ
Method: as §1

[3] = molecular target: T3, recombinant human BAFFR-Fc (R&D, 1162-BR) (human, UniProt Q96RJ3 7-71, limits assumed); assay: as above
T3 construct: Bought construct; not shown: Fc part
T3 sequence (Q96RJ3 7-71 limits assumed): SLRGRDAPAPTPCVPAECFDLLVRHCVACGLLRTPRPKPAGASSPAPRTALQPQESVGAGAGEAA
Method: as §1

[4] = molecular target: T4, recombinant human GITR-His (SinoBiological, 13643-H08H) (human, UniProt Q9Y5U5 26-161); assay: as above
T4 construct: Bought construct; not shown: His tag
T4 sequence (looked up): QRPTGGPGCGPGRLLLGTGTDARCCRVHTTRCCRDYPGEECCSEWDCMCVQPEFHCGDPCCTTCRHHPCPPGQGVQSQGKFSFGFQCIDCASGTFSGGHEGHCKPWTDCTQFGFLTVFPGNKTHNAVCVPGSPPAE
Method: as §1

[5] = molecular target: T5, recombinant human GITR-Fc (R&D, 689-GR) (human, UniProt Q9Y5U5 26-161); assay: as above
T5 construct: Bought construct; not shown: Fc part
T5 sequence (looked up): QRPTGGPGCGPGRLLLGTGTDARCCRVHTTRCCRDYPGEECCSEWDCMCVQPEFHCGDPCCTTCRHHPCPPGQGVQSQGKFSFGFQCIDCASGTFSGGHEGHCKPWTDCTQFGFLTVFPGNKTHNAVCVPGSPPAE
Method: as §1

[6] = molecular target: T6, recombinant human LTBR-Fc (Acros Biosystems, LTR-H5251) (human, UniProt P36941 28-227, limits assumed); assay: as above
T6 construct: Bought construct; not shown: Fc part
T6 sequence (P36941 28-227 limits assumed): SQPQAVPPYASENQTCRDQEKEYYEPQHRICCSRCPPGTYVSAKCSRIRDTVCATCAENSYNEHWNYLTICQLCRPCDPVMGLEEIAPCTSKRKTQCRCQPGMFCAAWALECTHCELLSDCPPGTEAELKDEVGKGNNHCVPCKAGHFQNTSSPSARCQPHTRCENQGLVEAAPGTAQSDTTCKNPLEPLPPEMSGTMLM
Method: as §1

[7] = molecular target: T7, recombinant human DR6-Fc (SinoBiological, 10175-H02H) (human, UniProt O75509 42-349); assay: as above
T7 construct: Bought construct; not shown: Fc part
T7 sequence (looked up): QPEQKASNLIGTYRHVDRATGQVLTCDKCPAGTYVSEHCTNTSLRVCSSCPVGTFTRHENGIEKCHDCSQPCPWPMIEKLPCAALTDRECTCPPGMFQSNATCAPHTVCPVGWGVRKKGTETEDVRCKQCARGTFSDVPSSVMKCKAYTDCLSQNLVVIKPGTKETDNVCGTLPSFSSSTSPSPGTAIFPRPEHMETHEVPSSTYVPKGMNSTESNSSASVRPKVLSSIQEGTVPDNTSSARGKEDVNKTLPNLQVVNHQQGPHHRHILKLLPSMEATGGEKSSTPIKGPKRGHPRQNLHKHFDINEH
Method: as §1

[8] = molecular target: T8, recombinant human DR3-Fc (R&D, 943-D3) (human, UniProt Q93038 25-201, limits assumed); assay: as above
T8 construct: Bought construct; not shown: Fc part
T8 sequence (looked up): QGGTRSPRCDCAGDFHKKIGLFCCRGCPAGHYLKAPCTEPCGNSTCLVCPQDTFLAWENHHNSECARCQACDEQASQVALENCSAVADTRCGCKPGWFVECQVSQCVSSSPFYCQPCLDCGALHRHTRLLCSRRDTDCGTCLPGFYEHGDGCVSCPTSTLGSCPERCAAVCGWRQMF
Method: as §1

[9] = molecular target: T9, human OX40 expressed on cells (human, UniProt P43489 29-277); assay: flow cytometry, 10-point titration 0.5-10,000 ng/ml, APC anti-human kappa detection
T9 construct: It was expressed ectopically on Jurkat cells or induced on Hut102 cells and primary T cells; also called huOX40; Jurkat-huOX40
T9 sequence: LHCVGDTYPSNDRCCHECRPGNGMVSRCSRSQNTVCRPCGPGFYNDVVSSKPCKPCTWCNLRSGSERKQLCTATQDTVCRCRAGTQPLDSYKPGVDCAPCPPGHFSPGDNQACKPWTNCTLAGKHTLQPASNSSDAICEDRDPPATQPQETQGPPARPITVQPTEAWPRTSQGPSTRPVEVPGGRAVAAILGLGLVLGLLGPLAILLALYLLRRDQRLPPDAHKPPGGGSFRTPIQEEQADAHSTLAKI
Method: Stable clones were generated via single-cell sorting (FACS ARIA Fusion). […] Samples were then washed two times and analyzed using the LSRFortessa flow cytometer (BD Biosciences). FACS plots were analyzed using a combination of FACS DIVA and WEHI Weasel software. Data were plotted with Graphpad Prism software.

[10] = molecular target: T10, recombinant human OX40-His (SinoBiological, 10481-H08H) (human, UniProt P43489 29-216); assay: Luminex suspension array, protein coupled to microspheres, PE MFI; antibody at 10, 100 and 1000 ng/ml
T10 construct: not shown: His tag
T10 sequence: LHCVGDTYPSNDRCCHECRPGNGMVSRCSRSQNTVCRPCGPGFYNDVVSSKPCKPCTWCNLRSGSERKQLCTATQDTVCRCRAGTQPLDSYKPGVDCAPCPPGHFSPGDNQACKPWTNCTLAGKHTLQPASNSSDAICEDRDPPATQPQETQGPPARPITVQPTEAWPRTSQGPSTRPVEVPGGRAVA
Method: as §1, with “Detection was carried out using 60 μl of goat anti-human IgG F(ab)₂ labeled with R-PE (2.5 μg/ml; JIR 109-116-098, AbDSerotec Rapid RPE Antibody Conjugation Kit, LNK022RPE) and another hour of incubation time (20° C., 650 rpm).” left out, “PE MFI values were used to determine specific or non-specific binding to the recombinant proteins mentioned above.” left out

[11] = molecular target: T11, recombinant human OX40-Fc (R&D systems, 3388-OX) (human, UniProt P43489 29-216); assay: as above
T11 construct: not shown: Fc part
T11 sequence: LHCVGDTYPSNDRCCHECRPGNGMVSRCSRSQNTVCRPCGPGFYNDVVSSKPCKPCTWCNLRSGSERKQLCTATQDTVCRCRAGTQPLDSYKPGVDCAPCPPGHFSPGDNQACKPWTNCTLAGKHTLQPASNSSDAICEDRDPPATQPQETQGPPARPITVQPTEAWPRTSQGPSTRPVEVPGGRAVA
Method: as §1, with “Detection was carried out using 60 μl of goat anti-human IgG F(ab)₂ labeled with R-PE (2.5 μg/ml; JIR 109-116-098, AbDSerotec Rapid RPE Antibody Conjugation Kit, LNK022RPE) and another hour of incubation time (20° C., 650 rpm).” left out, “PE MFI values were used to determine specific or non-specific binding to the recombinant proteins mentioned above.” left out

B1: pab2049 (IgG1) (antibody, V domains shown)
VH: EVQLVESGGGLVQPGGSLKLSCAASGFTFSGSAMHWVRQASGKGLEWVGRIRSKANSYATAYAASVKGRFTISRDDSKNTAYLQMNSLKTEDTAVYYCTSGIYDSSGYDYWGQGTLVTVSS
VL: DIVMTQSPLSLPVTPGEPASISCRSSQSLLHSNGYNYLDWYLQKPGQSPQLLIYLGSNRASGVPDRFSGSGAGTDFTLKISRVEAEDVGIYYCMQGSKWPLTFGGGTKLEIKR
notes: Human IgG1; also called anti-OX40 antibody pab2049 (IgG1)
B1: no binding (tested: 10 ng/ml, 100 ng/ml and 1000 ng/ml) [1]; no binding (tested: 10 ng/ml, 100 ng/ml and 1000 ng/ml) [2]; no binding (tested: 10 ng/ml, 100 ng/ml and 1000 ng/ml) [3]. B1: no binding (tested: 10 ng/ml, 100 ng/ml and 1000 ng/ml) [4]; no binding (tested: 10 ng/ml, 100 ng/ml and 1000 ng/ml) [5]; no binding (tested: 10 ng/ml, 100 ng/ml and 1000 ng/ml) [6]. B1: no binding (tested: 10 ng/ml, 100 ng/ml and 1000 ng/ml) [7]; no binding (tested: 10 ng/ml, 100 ng/ml and 1000 ng/ml) [8]; binds [9]. B1: binds [10]; binds [11].
